In US20220177579A1 (Memorial Sloan Kettering, published 2022):

Target: T1, human CD19 on CD19(+) NALM6 acute lymphoid leukemia cells (human, UniProt P15391 20-556)
T1 sequence: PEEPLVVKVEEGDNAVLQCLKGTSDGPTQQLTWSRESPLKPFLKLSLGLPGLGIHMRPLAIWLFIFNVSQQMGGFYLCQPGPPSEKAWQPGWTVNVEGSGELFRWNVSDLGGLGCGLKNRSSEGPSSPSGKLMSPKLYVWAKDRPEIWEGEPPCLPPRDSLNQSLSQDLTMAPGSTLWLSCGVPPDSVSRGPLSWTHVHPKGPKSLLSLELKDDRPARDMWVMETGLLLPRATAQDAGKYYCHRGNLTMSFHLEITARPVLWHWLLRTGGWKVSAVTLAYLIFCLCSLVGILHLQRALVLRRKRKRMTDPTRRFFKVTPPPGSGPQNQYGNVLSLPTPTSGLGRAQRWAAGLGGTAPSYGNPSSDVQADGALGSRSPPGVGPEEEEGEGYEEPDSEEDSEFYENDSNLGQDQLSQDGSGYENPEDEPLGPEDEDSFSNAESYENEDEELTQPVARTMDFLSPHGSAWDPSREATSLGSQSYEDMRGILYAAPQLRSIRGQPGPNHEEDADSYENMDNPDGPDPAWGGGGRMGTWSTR
Test: cell-based or functional assay

B1: CD19-BsAb BC250 (hFMC63 VL-2/VH-1b x CD3 IgG-scFv bispecific antibody) (bispecific antibody)
heavy: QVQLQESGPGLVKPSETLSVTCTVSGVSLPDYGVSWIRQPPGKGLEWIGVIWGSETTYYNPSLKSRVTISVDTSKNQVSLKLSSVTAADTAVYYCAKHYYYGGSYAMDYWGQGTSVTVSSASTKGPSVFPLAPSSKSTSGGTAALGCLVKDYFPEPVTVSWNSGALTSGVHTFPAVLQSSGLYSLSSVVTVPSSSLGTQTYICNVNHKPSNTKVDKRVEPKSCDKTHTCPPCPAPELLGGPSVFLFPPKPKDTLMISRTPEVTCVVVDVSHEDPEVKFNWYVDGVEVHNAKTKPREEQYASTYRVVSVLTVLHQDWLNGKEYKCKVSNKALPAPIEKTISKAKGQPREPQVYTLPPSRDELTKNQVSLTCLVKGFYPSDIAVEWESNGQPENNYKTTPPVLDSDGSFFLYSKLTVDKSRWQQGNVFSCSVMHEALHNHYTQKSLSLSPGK
light: DIQMTQSPSSLSASVGDRVTITCQASQDISKYLNWYQQKPGKAVKLLIYHTSRLHSGVPSRFSGSGSGTDYTLTISSLQPEDIATYFCQQGNTLPYTFGGGTKLEITRTVAAPSVFIFPPSDEQLKSGTASVVCLLNNFYPREAKVQWKVDNALQSGNSQESVTEQDSKDSTYSLSSTLTLSKADYEKHKVYACEVTHQGLSSPVTKSFNRGECTSGGGGSGGGGSGGGGSQVQLVQSGGGVVQPGRSLRLSCKASGYTFTRYTMHWVRQAPGKCLEWIGYINPSRGYTNYNQKFKDRFTISRDNSKNTAFLQMDSLRPEDTGVYFCARYYDDHYSLDYWGQGTPVTVSSGGGGSGGGGSGGGGSGGGGSGGGGSGGGGSDIQMTQSPSSLSASVGDRVTITCSASSSVSYMNWYQQTPGKAPKRWIYDTSKLASGVPSRFSGSGSGTDYTFTISSLQPEDIATYYCQQWSSNPFTFGCGTKLQITR
- EC50 for cell lysis of NALM6 cells (standard 4-hour 51Cr release assay with activated T cells): 0.042 pM
